These results are taken from paper PMC9408933, “Discovery of the Key Mutation Site Influencing the Thermostability of Thermomyces lanuginosus Lipase by Rosetta Design Programs” (International Journal of Molecular Sciences, 2022).

Substrate in this data set: CCCCCCCCCCCCCCCC(=O)Oc1ccc([N+](=O)[O-])cc1
Kind of data set: p-nitrophenol release, Michaelis-Menten fit. In kind it is biochemical, Thermomyces lanuginosus. The conditions noted are these: 37 °C, pH 9.0, 100 mM Tris-HCl, pNPP 0.08-10.00 mM, apparent Km. An excerpt: p-nitrophenol release, Michaelis-Menten fit on TLL (Thermomyces lanuginosus lipase)

B1: TLL (Thermomyces lanuginosus lipase) (Thermomyces lanuginosus) (protein)
chain: EVSQDLFNQFNLFAQYSAAAYCGKNNDAPAGTNITCTGNACPEVEKADATFLYSFEDSGVGDVTGFLALDNTNKLIVLSFRGSRSIENWIGNLNFDLKEINDICSGCRGHDGFTSSWRSVADTLRQKVEDAVREHPDYRVVFTGHSLGGALATVAGADLRGNGYDIDVFSYGAPRVGNRAFAEFLTVQTGGTLYRITHTNDIVPRLPPREFGYSHSSPEYWIKSGTLVPVTRNDIVKIEGIDATGGNNQPNIPDIPAHLWYFGLIGTCL
notes: N-terminal His-tag, secreted from Pichia pastoris GS115 (pPIC9K), Ni-NTA purified
Regarding B1, the Km came out at 160 ± 30 µM, the Vmax was determined as 297 µmol/min/mg, the kcat turned out to be 850 ± 11.8 s⁻¹ and the kcat/Km is 5.31e+06 ± 74000 M⁻¹ s⁻¹.

For orientation: Km means the substrate concentration at which the rate is half of its maximum. One may read the Vmax as the rate approached at saturating substrate. A word on the kcat: it is the maximal rate divided by the concentration of active sites. Broadly, the kcat/Km is the turnover number divided by the Michaelis constant.
